Test results from patent US7045613B2, “IKK-αproteins, nucleic acids and methods” (Amgen, Inc., priority 1997, dated 2006).
Each block holds one molecule with its values, some of them ahead of it.

Tests used:
[1] = test system: NF-κB-dependent reporter gene; experiment: E-selectin-luciferase NF-κB-dependent reporter gene assay, HeLa cells; type: cell-based, human; details: transient overexpression in HeLa cells, compared to vector control
Excerpt: (§1) To investigate a possible role for IKK-α in NF-κB activation, we examined if transient overexpression of IKK-α might activate an NF-κB-dependent reporter gene. An E-selectin-luciferase reporter construct (Schindler and Baichwal, 1994) and a IKK-α expression vector were cotransfected into HeLa cells. IKK-α expression activated the reporter gene in a dose-dependent manner, with a maximal induction of luciferase activity of about 6 to 7-fold compared to vector control. Similar results were obtained in 293 cells, where IKK-α overexpression induced reporter gene activity approximately 4-fold. […] Thus, IKK-α induces NF-κB activation when overexpressed.

[2] = test system: NF-κB-dependent reporter gene; experiment: NF-κB-dependent reporter gene assay, 293 cells; type: cell-based, human; details: overexpression in 293 cells
Excerpt: as §1
Overexpression of IKK-α(307-745) blocked TNF- and IL-1-induced reporter gene activation similar to overexpression of NIK(624-947). IKK-α(307-745) was also found to inhibited NF-κB-dependent reporter gene activity elicited by overexpression of TRAF2, TRAF6 and NIK.

NIK = target: T1, NIK (Homo sapiens, UniProt Q99558); experiment: Coimmunoprecipitation with Myc-tagged NIK in 293 cells; type: binding; details: Flag-tagged protein coexpressed with Myc-NIK, anti-Flag immunoprecipitation
T1 construct: expressed in transfected cells; host or cells: 293 human embryonic kidney cells
Excerpt: (§2) The interaction of IKK-α with NIK was confirmed in mammalian cell coimmunoprecipitation assays. Human IKK-α containing an N-terminal Flag epitope tag was transiently coexpressed in 293 human embryonic kidney cells with Myc epitope-tagged NIK or HA epitope-tagged TRAF proteins. Cell lysates were immunoprecipitated using a monoclonal antibody against the Flag epitope, and coprecipitating NIK or TRAF proteins were detected by immunoblot analysis with an anti-Myc or anti-HA monoclonal antibodies.

TRAF2 = experiment: Coimmunoprecipitation with HA-tagged TRAF2 in 293 cells; type: binding, human
Excerpt: as §2

TRAF3 = target: T2, TRAF3 (Homo sapiens, UniProt Q13114); experiment: Coimmunoprecipitation with HA-tagged TRAF3 in 293 cells; type: binding; details: Flag-tagged protein coexpressed with HA-TRAF3
T2 construct: expressed in transfected cells; host or cells: 293 human embryonic kidney cells
T2 sequence (Q13114 1-568): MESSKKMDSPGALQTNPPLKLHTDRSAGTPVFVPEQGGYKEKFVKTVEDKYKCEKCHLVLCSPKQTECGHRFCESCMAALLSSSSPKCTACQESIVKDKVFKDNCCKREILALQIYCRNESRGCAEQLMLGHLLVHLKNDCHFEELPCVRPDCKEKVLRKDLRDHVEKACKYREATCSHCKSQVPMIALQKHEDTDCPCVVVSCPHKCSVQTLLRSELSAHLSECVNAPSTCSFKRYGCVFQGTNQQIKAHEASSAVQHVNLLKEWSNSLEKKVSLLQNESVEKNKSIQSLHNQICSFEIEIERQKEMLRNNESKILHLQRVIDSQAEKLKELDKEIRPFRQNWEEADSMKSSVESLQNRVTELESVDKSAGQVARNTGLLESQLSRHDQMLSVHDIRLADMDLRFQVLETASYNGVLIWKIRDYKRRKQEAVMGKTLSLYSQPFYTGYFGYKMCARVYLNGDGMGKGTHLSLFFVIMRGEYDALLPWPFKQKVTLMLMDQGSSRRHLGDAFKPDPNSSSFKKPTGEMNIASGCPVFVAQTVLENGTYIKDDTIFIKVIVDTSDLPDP
Excerpt: as §2

T1 sequence (Q99558 whole entry): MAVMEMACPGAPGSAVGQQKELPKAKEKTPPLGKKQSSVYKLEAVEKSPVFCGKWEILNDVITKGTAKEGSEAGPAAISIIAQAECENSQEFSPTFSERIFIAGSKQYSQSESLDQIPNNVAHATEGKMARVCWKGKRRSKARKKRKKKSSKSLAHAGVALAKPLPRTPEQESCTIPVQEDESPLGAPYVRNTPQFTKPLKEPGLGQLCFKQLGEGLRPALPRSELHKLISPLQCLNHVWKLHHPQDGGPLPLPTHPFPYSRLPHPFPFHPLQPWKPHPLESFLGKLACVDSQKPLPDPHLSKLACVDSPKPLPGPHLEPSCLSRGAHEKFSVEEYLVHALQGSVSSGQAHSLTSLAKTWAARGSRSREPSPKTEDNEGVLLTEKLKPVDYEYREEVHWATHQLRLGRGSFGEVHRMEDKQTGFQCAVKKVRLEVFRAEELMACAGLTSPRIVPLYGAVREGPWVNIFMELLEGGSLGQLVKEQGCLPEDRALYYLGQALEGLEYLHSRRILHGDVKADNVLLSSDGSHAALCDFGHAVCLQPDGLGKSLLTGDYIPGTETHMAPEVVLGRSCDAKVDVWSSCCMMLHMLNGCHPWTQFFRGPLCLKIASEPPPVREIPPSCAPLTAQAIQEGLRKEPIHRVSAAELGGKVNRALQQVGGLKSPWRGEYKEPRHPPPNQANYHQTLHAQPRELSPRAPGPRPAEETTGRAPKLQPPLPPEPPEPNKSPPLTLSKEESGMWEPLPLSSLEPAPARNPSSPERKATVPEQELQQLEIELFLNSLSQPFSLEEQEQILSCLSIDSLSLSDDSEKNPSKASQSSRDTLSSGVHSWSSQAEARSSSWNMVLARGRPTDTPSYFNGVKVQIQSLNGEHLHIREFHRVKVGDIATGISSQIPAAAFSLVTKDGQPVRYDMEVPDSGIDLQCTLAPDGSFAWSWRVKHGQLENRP

coprecipitation / association with NIK (NIK): able to coprecipitate NIK
association with TRAF3 (TRAF3): failed to associate
B1: IKK-α: novel human IκB kinase, full conceptual translate SEQ ID NO:4 (protein)
chain: MERPPGLRPGAGGPWEMRERLGTGGFGNVCLYQHRELDLKIAIKSCRLELSTKNRERWCHEIQIMKKLNHANVVKACDVPEELNILIHDVPLLAMEYCSGGDLRKLLNKPENCCGLKESQILSLLSDIGSGIRYLHENKIIHRDLKPENIVLQDVGGKIIHKIIDLGYAKDVDQGSLCTSFVGTLQYLAPELFENKPYTATVDYWSFGTMVFECIAGYRPFLHHLQPFTWHEKIKKKDPKCIFACEEMSGEVRFSSHLPQPNSLCSLIVEPMENWLQLMLNWDPQQRGGPVDLTLKQPRCFVLMDHILNLKIVHILNMTSAKIISFLLPPDESLHSLQSRIERETGINTGSQELLSETGISLDPRKPASQCVLDGVRGCDSYMVYLFDKSKTVYEGPFASRSLSDCVNYIVQDSKIQLPIIQLRKVWAEAVHYVSGLKEDYSRLFQGQRAAMLSLLRYNANLTKMKNTLISASQQLKAKLEFFHKSIQLDLERYSEQMTYGISSEKMLKAWKEMEEKAIHYAEVGVIGYLEDQIMSLHAEIMELQKSPYGRRQGDLMESLEQRAIDLYKQLKHRPSDHSYSDSTEMVKIIVHTVQSQDRVLKELFGHLSKLLGCKQKIIDLLPKVEVALSNIKEADNTVMFMQGKRQKEIWHLLKIACTQSSARSLVGSSLEGAVTPQTSAWLPPTSAEHDHSLSCVVTPQDGETSAQMIEENLNCLGHLSTIIHEANEEQGNSMMNLDWSWLTE
maximal induction of luciferase activity [1]: 6 to 7 fold
induced reporter gene activity [2]: approximately 4 fold
association with TRAF2 (TRAF2; Flag-tagged protein coexpressed with HA-TRAF2, without NIK): failed to associate
coprecipitation of TRAF2 when NIK coexpressed (TRAF2; NIK coexpressed with IKK-α and TRAF2): strong coprecipitation

coprecipitation / association with NIK (NIK): able to associate with NIK
B2: IKK-α(307-745): deletion mutant IKK-α protein lacking most of the N-terminal kinase domain; kinase-inactive (protein)
chain: ILNLKIVHILNMTSAKIISFLLPPDESLHSLQSRIERETGINTGSQELLSETGISLDPRKPASQCVLDGVRGCDSYMVYLFDKSKTVYEGPFASRSLSDCVNYIVQDSKIQLPIIQLRKVWAEAVHYVSGLKEDYSRLFQGQRAAMLSLLRYNANLTKMKNTLISASQQLKAKLEFFHKSIQLDLERYSEQMTYGISSEKMLKAWKEMEEKAIHYAEVGVIGYLEDQIMSLHAEIMELQKSPYGRRQGDLMESLEQRAIDLYKQLKHRPSDHSYSDSTEMVKIIVHTVQSQDRVLKELFGHLSKLLGCKQKIIDLLPKVEVALSNIKEADNTVMFMQGKRQKEIWHLLKIACTQSSARSLVGSSLEGAVTPQTSAWLPPTSAEHDHSLSCVVTPQDGETSAQMIEENLNCLGHLSTIIHEANEEQGNSMMNLDWSWLTE
NF-κB-dependent reporter gene activity elicited by overexpression of TRAF2, TRAF6 and NIK [2]: inhibited
TNF- and IL-1-induced reporter gene activation [2]: blocked

B3: NIK(624-947): kinase-inactive mutant of NIK comprising its TRAF2-interacting C-terminal domain (protein, UniProt Q99558 624-947, looked up, fragment)
chain: PLTAQAIQEGLRKEPIHRVSAAELGGKVNRALQQVGGLKSPWRGEYKEPRHPPPNQANYHQTLHAQPRELSPRAPGPRPAEETTGRAPKLQPPLPPEPPEPNKSPPLTLSKEESGMWEPLPLSSLEPAPARNPSSPERKATVPEQELQQLEIELFLNSLSQPFSLEEQEQILSCLSIDSLSLSDDSEKNPSKASQSSRDTLSSGVHSWSSQAEARSSSWNMVLARGRPTDTPSYFNGVKVQIQSLNGEHLHIREFHRVKVGDIATGISSQIPAAAFSLVTKDGQPVRYDMEVPDSGIDLQCTLAPDGSFAWSWRVKHGQLENRP
TNF- and IL-1-induced reporter gene activation [2]: blocked
